Data: US20260242735A1 (UNIVERSIT T BASEL, published 2026)

Experiments:
Experiment in all cases: flow cytometry, HEK293-T, alanine scan;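 also: transiently transfected HEK293-T cells expressing single alanine mutants of human CD33 (alanine residues changed to serine), antibody binding fluorescence minus background, relative to wild type CD33, mean of duplicates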
[1] = molecular target: human CD33 R296A (human, UniProt P20138 18-364)
Protocol: (§1) An alanine scan on human CD33 was performed to the determine the residues on CD33 that are involved in binding to the antibodies investigated. […] Briefly, a mutation library of CD33 was created by high-throughput, site-directed mutagenesis. Each residue was individually mutated to alanine, with alanine codons mutated to serine. The mutant library was arrayed in 384-well microplates and transiently transfected into HEK293-T. Following transfection, cells were incubated with the indicated antibodies (IgG or Fab) at concentrations pre-determined using an independent immunofluorescence titration curve on wild type CD33. […] Binding of each antibody to each mutant clone was determined in duplicates. For each point, background fluorescence was subtracted from the raw data, which were then normalized to antibody reactivity with wild type CD33.
(§2) Critical residues for antibody binding (outlined in dark grey) were residues whose mutations led to a binding of the test Abs of less than 20%. Additional secondary residues (outlined in light grey) were identified that led to a binding of the test Abs of between 20 and 40% as compared to the wild type CD33.

[2] = molecular target: human CD33 G304A (human, UniProt P20138 18-364)
Protocol: as §1, §2

[3] = molecular target: human CD33 V332A (human, UniProt P20138 18-364)
Protocol: as §1, §2

[4] = molecular target: human CD33 T320A (human, UniProt P20138 18-364)
Protocol: as §1, §2

[5] = molecular target: human CD33 T322A (human, UniProt P20138 18-364)
Protocol: as §1, §2

[6] = molecular target: human CD33 T331A (human, UniProt P20138 18-364)
Protocol: as §1, §2

[7] = molecular target: human CD33 T302A (human, UniProt P20138 18-364)
Protocol: as §1, §2

[8] = molecular target: human CD33 A289S (human, UniProt P20138 18-364)
Protocol: as §1, §2

[9] = molecular target: human CD33 L316A (human, UniProt P20138 18-364)
Protocol: as §1, §2

[10] = molecular target: human CD33 N297A (human, UniProt P20138 18-364)
Protocol: as §1, §2

[11] = molecular target: human CD33 K283A (human, UniProt P20138 18-364)
Protocol: as §1, §2

[12] = molecular target: human CD33 L338A (human, UniProt P20138 18-364)
Protocol: as §1, §2

[13] = molecular target: human CD33 E321A (human, UniProt P20138 18-364)
Protocol: as §1, §2

[14] = molecular target: human CD33 K315A (human, UniProt P20138 18-364)
Protocol: as §1, §2

[15] = molecular target: human CD33 A329S (human, UniProt P20138 18-364)
Protocol: as §1, §2

[16] = molecular target: human CD33 R287A (human, UniProt P20138 18-364)
Protocol: as §1, §2

[17] = molecular target: human CD33 S342A (human, UniProt P20138 18-364)
Protocol: as §1, §2

[18] = molecular target: human CD33 A328S (human, UniProt P20138 18-364)
Protocol: as §1, §2

[19] = molecular target: human CD33 A272S (human, UniProt P20138 18-364)
Protocol: as §1, §2

[20] = molecular target: human CD33 L273A (human, UniProt P20138 18-364)
Protocol: as §1, §2

[21] = molecular target: human CD33 H339A (human, UniProt P20138 18-364)
Protocol: as §1, §2

[22] = molecular target: human CD33 G318A (human, UniProt P20138 18-364)
Protocol: as §1, §2

[23] = molecular target: human CD33 M334A (human, UniProt P20138 18-364)
Protocol: as §1, §2

[24] = molecular target: human CD33 P308A (human, UniProt P20138 18-364)
Protocol: as §1, §2

[25] = molecular target: human CD33 S324A (human, UniProt P20138 18-364)
Protocol: as §1, §2

[26] = molecular target: human CD33 C274A (human, UniProt P20138 18-364)
Protocol: as §1, §2

[27] = molecular target: human CD33 V294A (human, UniProt P20138 18-364)
Protocol: as §1, §2

[28] = molecular target: human CD33 G295A (human, UniProt P20138 18-364)
Protocol: as §1, §2

[29] = molecular target: human CD33 T299A (human, UniProt P20138 18-364)
Protocol: as §1, §2

[30] = molecular target: human CD33 E333A (human, UniProt P20138 18-364)
Protocol: as §1, §2

[31] = molecular target: human CD33 S323A (human, UniProt P20138 18-364)
Protocol: as §1, §2

[32] = molecular target: human CD33 E337A (human, UniProt P20138 18-364)
Protocol: as §1, §2

[33] = molecular target: human CD33 F280A (human, UniProt P20138 18-364)
Protocol: as §1, §2

[34] = molecular target: human CD33 A293S (human, UniProt P20138 18-364)
Protocol: as §1, §2

[35] = molecular target: human CD33 A341S (human, UniProt P20138 18-364)
Protocol: as §1, §2

[36] = molecular target: human CD33 I278A (human, UniProt P20138 18-364)
Protocol: as §1, §2

Chain of human CD33 H339A (P20138 18-364 H339A limits assumed): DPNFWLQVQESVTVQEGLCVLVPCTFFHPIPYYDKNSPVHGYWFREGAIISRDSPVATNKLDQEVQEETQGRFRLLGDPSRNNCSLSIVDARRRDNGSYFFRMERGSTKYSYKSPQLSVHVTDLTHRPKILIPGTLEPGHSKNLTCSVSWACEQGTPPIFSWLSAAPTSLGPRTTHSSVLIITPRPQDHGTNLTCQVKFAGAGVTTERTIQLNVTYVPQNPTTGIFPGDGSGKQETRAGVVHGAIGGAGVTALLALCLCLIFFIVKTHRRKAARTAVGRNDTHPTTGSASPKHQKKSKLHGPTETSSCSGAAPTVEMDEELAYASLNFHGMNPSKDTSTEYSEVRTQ
Chain of human CD33 T331A (P20138 18-364 T331A limits assumed): as the sequence (P20138 18-364 H339A limits assumed) above, with T314A, A322H counted along it
Chain of human CD33 T302A (P20138 18-364 T302A limits assumed): as the sequence (P20138 18-364 H339A limits assumed) above, with T285A, A322H counted along it
Chain of human CD33 L338A (P20138 18-364 L338A limits assumed): as the sequence (P20138 18-364 H339A limits assumed) above, with L321A, A322H counted along it
Chain of human CD33 R296A (P20138 18-364 R296A limits assumed): as the sequence (P20138 18-364 H339A limits assumed) above, with R279A, A322H counted along it
Chain of human CD33 V294A (P20138 18-364 V294A limits assumed): as the sequence (P20138 18-364 H339A limits assumed) above, with V277A, A322H counted along it
Chain of human CD33 G304A (P20138 18-364 G304A limits assumed): as the sequence (P20138 18-364 H339A limits assumed) above, with G287A, A322H counted along it
Chain of human CD33 T322A (P20138 18-364 T322A limits assumed): as the sequence (P20138 18-364 H339A limits assumed) above, with T305A, A322H counted along it
Chain of human CD33 A328S (P20138 18-364 A328S limits assumed): as the sequence (P20138 18-364 H339A limits assumed) above, with A311S, A322H counted along it
Chain of human CD33 P308A (P20138 18-364 P308A limits assumed): as the sequence (P20138 18-364 H339A limits assumed) above, with P291A, A322H counted along it
Chain of human CD33 L273A (P20138 18-364 L273A limits assumed): as the sequence (P20138 18-364 H339A limits assumed) above, with L256A, A322H counted along it
Chain of human CD33 L316A (P20138 18-364 L316A limits assumed): as the sequence (P20138 18-364 H339A limits assumed) above, with L299A, A322H counted along it
Chain of human CD33 A341S (P20138 18-364 A341S limits assumed): as the sequence (P20138 18-364 H339A limits assumed) above, with A322H, A324S counted along it
Chain of human CD33 E337A (P20138 18-364 E337A limits assumed): as the sequence (P20138 18-364 H339A limits assumed) above, with E320A, A322H counted along it

B1: Refmab #5 (antibody, V domains shown)
VH: QVQLVQSGAEVKKPGASVKVSCKASGYTFTNYDINWVRQAPGQGLEWIGWIYPGDGSTKYNEKFKAKATLTADTSTSTAYMELRSLRSDDTAVYYCASGYEDAMDYWGQGTTVTVSS
VL: DIQMTQSPSSLSASVGDRVTINCKASQDINSYLSWFQQKPGKAPKTLIYRANRLVDGVPSRFSGSGSGQDYTLTISSLQPEDFATYYCLQYDEFPLTFGGGTKVEIK
notes: The alanine scan used IgG or Fab
Mean % WT Binding [1]: 99.5 % WT binding | Mean % WT Binding [2]: 79.1 % WT binding | Mean % WT Binding [3]: 71.6 % WT binding | Mean % WT Binding [4]: 121 % WT binding | Mean % WT Binding [5]: 100 % WT binding | Mean % WT Binding [6]: 88.1 % WT binding | Mean % WT Binding [7]: 77 % WT binding | Mean % WT Binding [8]: 91.8 % WT binding | Mean % WT Binding [9]: 79.5 % WT binding | Mean % WT Binding [10]: 83.7 % WT binding | Mean % WT Binding [11]: 82.9 % WT binding | Mean % WT Binding [12]: 105 % WT binding | Mean % WT Binding [13]: 96.2 % WT binding | Mean % WT Binding [14]: 112 % WT binding | Mean % WT Binding [15]: 124 % WT binding | Mean % WT Binding [16]: 97.1 % WT binding | Mean % WT Binding [17]: 101 % WT binding | Mean % WT Binding [18]: 105 % WT binding | Mean % WT Binding [19]: 110 % WT binding | Mean % WT Binding [20]: 102 % WT binding | Mean % WT Binding [21]: 82.7 % WT binding | Mean % WT Binding [22]: 87.1 % WT binding | Mean % WT Binding [23]: 99.4 % WT binding | Mean % WT Binding [24]: 73.5 % WT binding | Mean % WT Binding [25]: 96.6 % WT binding | Mean % WT Binding [26]: 87.4 % WT binding | Mean % WT Binding [27]: 84.6 % WT binding | Mean % WT Binding [28]: 101 % WT binding | Mean % WT Binding [29]: 91.1 % WT binding | Mean % WT Binding [30]: 121 % WT binding | Mean % WT Binding [31]: 113 % WT binding | Mean % WT Binding [32]: 114 % WT binding | Mean % WT Binding [33]: 124 % WT binding | Mean % WT Binding [34]: 87.7 % WT binding | Mean % WT Binding [35]: 113 % WT binding | Mean % WT Binding [36]: 100 % WT binding

B2: Refmab #6 (antibody, V domains shown)
VH: QVQLQQPGAEVVKPGASVKMSCKASGYTFTSYYIHWIKQTPGQGLEWVGVIYPGNDDISYNQKFQGKATLTADKSSTTAYMQLSSLTSEDSAVYYCAREVRLRYFDVWGQGTTVTVSS
VL: EIVLTQSPGSLAVSPGERVTMSCKSSQSVFFSSSQKNYLAWYQQIPGQSPRLLIYWASTRESGVPDRFTGSGSGTDFTLTISSVQPEDLAIYYCHQYLSSRTFGQGTKLEIK
notes: as for B1
Mean % WT Binding [1]: 102 % WT binding | Mean % WT Binding [2]: 100 % WT binding | Mean % WT Binding [3]: 100 % WT binding | Mean % WT Binding [4]: 100 % WT binding | Mean % WT Binding [5]: 110 % WT binding | Mean % WT Binding [6]: 90.9 % WT binding | Mean % WT Binding [7]: 101 % WT binding | Mean % WT Binding [8]: 96 % WT binding | Mean % WT Binding [9]: 90.5 % WT binding | Mean % WT Binding [10]: 95.6 % WT binding | Mean % WT Binding [11]: 88.6 % WT binding | Mean % WT Binding [12]: 103 % WT binding | Mean % WT Binding [13]: 111 % WT binding | Mean % WT Binding [14]: 99.2 % WT binding | Mean % WT Binding [15]: 92.8 % WT binding | Mean % WT Binding [16]: 71.5 % WT binding | Mean % WT Binding [17]: 102 % WT binding | Mean % WT Binding [18]: 94 % WT binding | Mean % WT Binding [19]: 90.9 % WT binding | Mean % WT Binding [20]: 104 % WT binding | Mean % WT Binding [21]: 99.3 % WT binding | Mean % WT Binding [22]: 89.1 % WT binding | Mean % WT Binding [23]: 107 % WT binding | Mean % WT Binding [24]: 103 % WT binding | Mean % WT Binding [25]: 97.1 % WT binding | Mean % WT Binding [26]: 92.3 % WT binding | Mean % WT Binding [27]: 104 % WT binding | Mean % WT Binding [28]: 92.1 % WT binding | Mean % WT Binding [29]: 104 % WT binding | Mean % WT Binding [30]: 98.7 % WT binding | Mean % WT Binding [31]: 106 % WT binding | Mean % WT Binding [32]: 105 % WT binding | Mean % WT Binding [33]: 106 % WT binding | Mean % WT Binding [34]: 101 % WT binding | Mean % WT Binding [35]: 89.6 % WT binding | Mean % WT Binding [36]: 108 % WT binding
